In article PMC8473724:

Key:
GRB2 = GRB2 (UniProt P62993); assay: anti-Myc co-IP, anti-GRB2 immunoblot; settings: reference: CD22-Myc wild type; sites Y807
ANKLE2 = assay: anti-FLAG co-immunoprecipitation, SILAC LC-MS; settings: Ramos PTP1B KO cells; n = 3; read off a plot; scale: log10 SILAC ratio
ARHGAP12 iso 2 = assay: anti-FLAG co-immunoprecipitation, SILAC LC-MS; settings: Ramos PTP1B KO cells; n = 3; read off a plot; scale: log10 SILAC ratio
ARHGAP12 iso 3 = assay: anti-FLAG co-immunoprecipitation, SILAC LC-MS; settings: Ramos PTP1B KO cells; n = 3; read off a plot; scale: log10 SILAC ratio
CDC20 = assay: anti-FLAG co-immunoprecipitation, SILAC LC-MS; settings: Ramos PTP1B KO cells; n = 3; read off a plot; scale: log10 SILAC ratio
PTRH2 = assay: anti-FLAG co-immunoprecipitation, SILAC LC-MS; settings: Ramos PTP1B KO cells; n = 3; read off a plot; scale: log10 SILAC ratio
TNK2 = assay: anti-FLAG co-immunoprecipitation, SILAC LC-MS; settings: Ramos PTP1B KO cells; n = 3; read off a plot; scale: log10 SILAC ratio
[1] = target: intersectin-2 (ITSN2) [human (endogenous in Ramos)]; assay: anti-FLAG co-immunoprecipitation, SILAC LC-MS; settings: Ramos PTP1B KO cells; n = 3; read off a plot; scale: log10 SILAC ratio

CD22 (from UniProt P20273) Y807F was tested, and the “binding against the reference” value (GRB2) was “lost”.

An enrichment (ANKLE2) of 0.97, an enrichment (ARHGAP12 iso 2) of 1.6 and an enrichment (ARHGAP12 iso 3) of 1.2 were found for “FLAG-PTP1B WT (protein tyrosine phosphatase 1B) (from UniProt P18031) D181A; Y46F” in this work. It also gave an enrichment (CDC20) of 0.88, an enrichment (PTRH2) of 1.4 and an enrichment (TNK2) of 0.6.

An enrichment [1] of 0.5 was found for “FLAG-PTP1B WT (protein tyrosine phosphatase 1B) mutant D181A; Y46F [not stated] / intersectin-2 (ITSN2) [human (endogenous in Ramos)] chain 1 Y46F, chain 1 D181A” in this work.
